Results: US20190134143A1 (BIOCELLS BEIJING BIOTECH, published 2019)

Target: T1, PDZ1/2 domain
T1 construct: domain: PDZ1/2; also called PDZ1/2 protein
Assay: SPR, Biacore 3000; PDZ1/2 amine-coupled to the chip, peptide as analyte, 1:1 binding model
Description: The immobile phase molecule (ligand) was PDZ1/2 protein with a molecular weight of approximately 20 kD at a concentration of 2 mg/ml. The mobile phase molecule (analyte) was a polypeptide to be screened with a molecular weight of approximately 2 kD at a concentration of 10 mg/ml. The CMS chip was used for fixation using a Biacore 3000 instrument. The electrophoresis buffer was PBS plus 0.005% Tween 20. Fixation was carried out using an amino coupling method. The concentration of the ligand was 10 μg/ml. The fixation buffer was 10 mM sodium acetate, pH 4.0. Fixed amount was 1400 RU, which was fixed to flow cell 2. The used flow rate was 10 μl/ml and the ligand was loaded for 1 minute. 10 mM Gly at pH 2.0+2.5 was used as a regenerant. Regeneration was carried out at a flow rate of 30 μl/min. The loading time was 30 s.

T1 sequence (P78352 65-246): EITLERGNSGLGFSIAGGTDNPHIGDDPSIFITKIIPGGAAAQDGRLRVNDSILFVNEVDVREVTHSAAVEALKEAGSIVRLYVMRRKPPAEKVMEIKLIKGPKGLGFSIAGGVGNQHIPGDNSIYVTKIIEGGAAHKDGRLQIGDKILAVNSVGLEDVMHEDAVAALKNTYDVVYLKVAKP

B1: chimeric peptide YE-NA-1 (peptide)
peptide: YGRKKRRQRRRYEKLSSIESDV
Kd: 54.4 nM
